Measured values from US20180079807A1 (Genentech, published 2018).

Biological target: T1, IL-17AA homodimer (human, UniProt Q16552 24-155)
T1 construct: also called IL-17A homodimer
T1 sequence: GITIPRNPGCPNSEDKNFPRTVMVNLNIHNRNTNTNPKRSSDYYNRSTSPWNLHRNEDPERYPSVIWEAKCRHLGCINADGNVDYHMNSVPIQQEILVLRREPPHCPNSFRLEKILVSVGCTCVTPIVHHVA
Experiment: ELISA, plate coated with IL-17AA; reference of the relative-potency calculation

B1: anti-IL-17A/F antibody MCAF5352A, Reference Material (composition comprising 2% of the glycosylation variant) (antibody, human IgG1, kappa, V domains shown)
VH: EVQLVESGGGLVQPGRSLRLSCAASGFTFDDYAMHWVRQAPGKGLEWVSGINWSSGGIGYADSVKGRFTISRDNAKNSLYLQMNSLRAEDTALYYCARDIGGFGEFYWNFGLWGRGTLVTVSS
VL: not shown
notes: Produced in CHO cells; Predominantly the main species, which is not glycosylated in the variable region, with about 2% Peak 1; also called antibody standard; sample with 2% glycosylation variants
B1: binds.
